Measured values reported in PMC12880746.

Assays:
[1] = target: CspC-CPD-His6 (Clostridioides difficile); test: SEC; elution fraction of a CspC-CPD-His6:CspA co-affinity purification (proteins co-expressed in E. coli) on Superdex 200 Increase 10/300 GL; 200 mM NaCl, 10 mM Tris-HCl pH 7.5, 5% glycerol, 1 mM dithiothreitol; fractions on SDS-PAGE; complex peak re-run on SEC; also run with TA and CaCl2 without difference
[2] = target: CspA-His6 (Clostridioides difficile); test: SEC; individually Ni-affinity-purified Csp-His6 proteins on Superdex 200 Increase 10/300 GL; 200 mM NaCl, 10 mM Tris-HCl pH 7.5, 5% glycerol, 1 mM dithiothreitol; apparent MW from gel filtration standard
[3] = target: CspB-His6 (Clostridioides difficile); test: as above

untagged CspA (CspA_(583-1132)) (domain or fragment)
stoichiometry N (ratio CspA:CspC-CPD-His6) [1]: 1

CspA-His6 (domain or fragment)
stoichiometry N [2]: 2

CspB-His6 (domain or fragment)
stoichiometry N [3]: 2
